Measured values taken from doi:10.1101/2022.07.07.22277364.

Assays:
Assay in all cases: BLI
[1] = target: truncated human ACE2 (residues 19-613 with a C-terminal AviTag and 6xHis-tag), biotinylated (human) (UniProt Q9BYF1)
[2] = target: human ACE2 polymorphism K26R (rs4646116) (human) (UniProt Q9BYF1)
[3] = target: human ACE2 polymorphism S19P (rs73635825) (human) (UniProt Q9BYF1)

Substance: SARS-CoV-2 RBD Alpha (B.1.1.7), N501Y (from UniProt P0DTC2) (domain or fragment)
- t1/2 [1]: 5.49 min

Substance: SARS-CoV-2 RBD Gamma (P.1) (from UniProt P0DTC2) (domain or fragment)
- t1/2 [1]: 3.58 min

Substance: SARS-CoV-2 RBD Beta (B.1.351) (from UniProt P0DTC2) (domain or fragment)
- t1/2 [1]: 2.75 min

Substance: SARS-CoV-2 Omicron BA.2 RBD (from UniProt P0DTC2) (domain or fragment)
- t1/2 [1]: 2.7 min
- Kd [2]: 5.18 nM
- Kd [3]: 4.97 nM

Substance: SARS-CoV-2 ancestral RBD recombinant protein (from UniProt P0DTC2) (domain or fragment)
- t1/2 [1]: 1.39 min
